Source: patent US20230416313A1 (published 2023)

T1: recombinant human complement factor H (CFH), isolated from moss (human, UniProt P08603 19-1231)
T1 chain: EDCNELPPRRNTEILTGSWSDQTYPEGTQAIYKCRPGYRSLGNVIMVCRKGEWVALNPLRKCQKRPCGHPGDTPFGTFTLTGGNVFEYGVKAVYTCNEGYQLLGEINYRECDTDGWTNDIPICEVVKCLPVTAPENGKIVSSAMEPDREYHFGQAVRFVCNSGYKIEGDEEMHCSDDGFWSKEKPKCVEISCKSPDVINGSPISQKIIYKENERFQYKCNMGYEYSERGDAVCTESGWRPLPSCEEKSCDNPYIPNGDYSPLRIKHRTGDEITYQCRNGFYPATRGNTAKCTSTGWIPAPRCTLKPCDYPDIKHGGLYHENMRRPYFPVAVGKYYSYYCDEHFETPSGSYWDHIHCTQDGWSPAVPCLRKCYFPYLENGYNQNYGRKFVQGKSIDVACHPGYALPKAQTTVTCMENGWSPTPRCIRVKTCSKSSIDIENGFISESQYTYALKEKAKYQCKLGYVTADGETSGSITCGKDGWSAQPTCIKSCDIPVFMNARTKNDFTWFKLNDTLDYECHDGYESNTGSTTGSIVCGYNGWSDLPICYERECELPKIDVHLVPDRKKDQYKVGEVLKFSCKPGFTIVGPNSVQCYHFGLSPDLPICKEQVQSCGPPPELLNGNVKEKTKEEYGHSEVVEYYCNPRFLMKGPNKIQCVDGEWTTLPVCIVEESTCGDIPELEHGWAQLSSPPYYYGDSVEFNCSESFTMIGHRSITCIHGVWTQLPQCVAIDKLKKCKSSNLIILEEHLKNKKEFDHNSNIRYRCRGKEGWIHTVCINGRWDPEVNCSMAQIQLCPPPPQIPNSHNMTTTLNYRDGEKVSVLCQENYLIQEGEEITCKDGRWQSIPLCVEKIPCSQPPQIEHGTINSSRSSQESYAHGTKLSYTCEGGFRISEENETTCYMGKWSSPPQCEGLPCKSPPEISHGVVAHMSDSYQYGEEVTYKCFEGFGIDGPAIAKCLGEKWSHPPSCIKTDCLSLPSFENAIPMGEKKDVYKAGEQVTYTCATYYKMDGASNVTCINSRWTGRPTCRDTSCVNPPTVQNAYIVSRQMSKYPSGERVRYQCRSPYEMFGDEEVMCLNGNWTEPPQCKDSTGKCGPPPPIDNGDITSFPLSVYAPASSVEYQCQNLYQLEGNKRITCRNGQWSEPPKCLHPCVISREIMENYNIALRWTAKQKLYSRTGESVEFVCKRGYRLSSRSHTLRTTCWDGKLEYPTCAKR


Legend:
[1] = biological target: T1, recombinant human complement factor H …; experiment: BLI; steady state
[2] = biological target: T1, recombinant human complement factor H …; experiment: SPR; steady state

| Binder | Kd [1] [nM] | Kd [2] [nM] |
| --- | --- | --- |
| CFH binding protein of SEQ ID NO: 20 (CID 209864) (designed binder) IAAKFDEAQQAAFYEILHLPNLTELQRNHFIQTLRDDPSVSLWVLGLAQLLNDSQAPKIAAKFDEAQQHAFYTILHLENLTEEQRNAFIQSLRDDPSVSLEVLGEAIKLNISQAPK | 421 |  |
| 209202 (protein) NAADLDEAQISAIFEIMDLPNLTWQQQEWFIDSLSDDPSVSKEVLGEAQKLNDSQAPK |  | 35 |
| CFH binding protein of SEQ ID NO: 5 (CID 209447) (designed binder) NAAEADDAQVSAAMEIIMLPNLTLEQAHSFIESLYRDPSVSKEVLGEAQKLNDSQAPK | 120 |  |
